Consider 3 molecules from doi:10.1101/2020.10.28.359810 (bioRxiv, 2020).

Experiment [1] addresses T1, TLX ligand-binding domain (UniProt Q9Y466 155-385). As to the kind of experiment: BLI. (In general: Biolayer interferometry detects binding as a change in optical thickness at a sensor tip.)
Experiment [2] has as its target T1, TLX ligand-binding domain. Briefly: AlphaScreen or HTRF. In general terms: Bead proximity is the source of the signal in Alpha formats.

T1 sequence (Q9Y466 155-385): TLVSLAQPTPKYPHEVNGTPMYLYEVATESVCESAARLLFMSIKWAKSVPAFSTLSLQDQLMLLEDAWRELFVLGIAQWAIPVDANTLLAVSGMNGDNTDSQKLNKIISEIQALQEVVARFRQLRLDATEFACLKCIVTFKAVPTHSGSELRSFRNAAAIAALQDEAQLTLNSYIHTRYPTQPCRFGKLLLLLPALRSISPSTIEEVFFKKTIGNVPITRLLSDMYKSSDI

In the case of atrophin corepressor peptide, the Kd in experiment [1] turned out to be 14.2 µM. Molecule untagged atrophin peptide registered a concentration for a half-maximal effect (EC50) in experiment [2] of 1300 nM.

B1: receptor-interaction domain from NCOA3 (domain or fragment, UniProt Q9Y6Q9 621-821, looked up)
chain: LLQLLTCSSDDRGHSSLTNSPLDSSCKESSVSVTSPSGVSSSTSGGVSSTSNMHGSLLQEKHRILHKLLQNGNSPAEVAKITAEATGKDTSSITSCGDGNVVKQEQLSPKKKENNALLRYLLDRDDPSDALSKELQPQVEGVDNKMSQCTSSTIPSSSQEKDPKIKTETSEEGSGDLDNLDAILGDLTSSDFYNNSISSNG
In turn, B1 yielded a concentration for a half-maximal effect (EC50) in experiment [2] of 3300 nM. This EC50 is about 2.5-fold higher than that of the molecule before.

By Kd is commonly meant the free concentration of one partner at which half of the binding sites on the other are occupied at equilibrium, for simple one-to-one binding. High values mean lower affinity, low ones higher affinity. For orientation: EC50 means the concentration needed to bring the measured effect to its halfway point. High values mean a need for much substance, low ones an effect from little substance.
